From patent publication CN111234012A (UNIV TSINGHUA, dated 2020)

What was measured:
[1] = molecular target: HBV病毒 (HepAD38细胞上清制备的HBV病毒液); experiment: cell-based or functional assay
[2] = molecular target: T1, HBs抗原 (GENBANK ACCESSION NO: P30019.1) (乙肝病毒 (hepatitis B virus), UniProt P30019 1-226); experiment: ELISA, HBs antigen coated at 50 ng per well, anti-human IgG-HRP, OD450
T1 construct: Coating antigen of the ELISA (50 ng per well); also called 乙肝病毒小膜蛋白HBs; 乙肝表面抗原
T1 sequence (P30019 whole entry, one chain of several): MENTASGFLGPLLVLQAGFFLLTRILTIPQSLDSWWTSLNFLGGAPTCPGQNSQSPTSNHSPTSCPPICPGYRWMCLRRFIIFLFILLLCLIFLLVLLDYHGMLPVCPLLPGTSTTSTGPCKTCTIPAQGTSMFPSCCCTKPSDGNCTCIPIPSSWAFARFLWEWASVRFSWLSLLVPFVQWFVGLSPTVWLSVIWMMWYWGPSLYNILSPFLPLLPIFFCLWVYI

B1: 单克隆抗体B432 (antibody, V domains shown)
VH: VQLVQSGGGVVQPGGSLRLSCAASGFIFGDYAMYWVRQAPGKGLEWVSFIGADGATIYYADSVTGRFTISRDNSKNSLFLQMNSLRTEDTAFYYCAKEMGVRDRYYYYAIDVWGQGTTVTVSS
VL: EIVLTQSPGTLSLSPGERASLSCRASQSVGGYLAWYQQTPGQAPRLLIYHSSTRATGIPARFSGSGSGTDFTLTISRLEPEDFAVYYCQQRTKWPLTFGGGTKVEIKR
notes: also called B432抗体
[1]
  HBV neutralisation on HepG2-NTCP cells, HBeAg in supernatant (IC50): 0.025 µg/mL
[2]
  binding result: binds
